{
  "source": "patent US10322164B2",
  "about": "“Modulation of cellular localization of cyclin C” (Rowan University, priority 2014, dated 2019)",
  "key": {"[1]": {"tested_on": "Drp1 phosphorylation at the activating serine (Ser616)", "experiment": "Drp1 Ser616 phosphorylation in Hela cells subjected to H2O2", "format": "cell-based, human", "source_text": "(§1) For phosphorylation, both inhibitory and stimulatory modifications have been identified. For example, cyclin B-Cdk1 phosphorylation at the G2/M boundary stimulates Drp1 activity to induce fission to promote mitochondrial partitioning during mitosis. This modification is clearly observed in cells arrested at the G2/M boundary following addition of the microtubule destabilizing agent nocodazole. Therefore, one possibility is that cytoplasmic cyclin C is now free to interact with another Cdk to modify Drp1 and induce fission. However, no increase was found in Drp1 phosphorylation at the activating serine (Ser616) in Hela cells subjected to H2O2 or in permeabilized CCNC^−/−MEF cells treated with GST-cyclin C. […] It is possible that the accelerated fission in these experiments results in de-phosphorylation of Ser616 helping attenuate mitochondrial fragmentation."}, "[2]": {"tested_on": "MCF-10A cells", "experiment": "Cyclin C localization and mitochondrial fission in stressed MCF-10A cells", "format": "cell-based, human", "conditions": "H2O2 0.4 mM for 4 h", "description": "(§2) (FIG. 15A) cyclin C localization was followed in MCF-7 or MCF-10A cells exposed to H2O2 (0.4 mM) for 4 h. (FIG. 15B) cyclin C levels were monitored by Western blot in MCF-7 cells treated with (+) or without (−) CCNC specific siRNAs. β-tubulin levels were followed as a loading control. (FIG. 15C) Viability was measured (viable stain assays) in the cell lines described in (FIG. 15B) following 4 h H2O2 exposure as indicated.\n(§3) Cells were cultured on coverslips then fixed with 4% paraformaldehyde for 20 min, permeabilized with 0.2% Triton X-100 for 15 min, blocked with 2% BSA, and incubated with antibodies as indicated. The cells were mounted with DAPI-containing medium (Vector Labs) and the images were acquired with Nikon Eclipse 90i microscope equipped with a Retiga Exi CCD camera and NIS software for data analysis. DAPI (5 μg/ml) and Mitotracker Red (5 μg/ml) staining was used to identify nuclear and mitochondrial subcellular localization.\n(§4) To evaluate the role of cyclin C in PCD execution, CCNC specific siRNAs were used to knockdown cyclin C. The knockdown efficiency was about 70% compared to control (FIG. 14C)."}, "[3]": {"tested_on": "HeLa cells", "experiment": "Cyclin C localization in stressed HeLa cells", "format": "cell-based, human", "description": "(FIG. 14A) cyclin C localization in H2O2 stressed cultures as indicated. See (FIG. 14B) for enlarged images for 6 hr+H2O2 cells. (FIG. 14C) Knockdown efficiency of cyclin C by siRNA. con=scrambled siRNA control. Annexin V studies in the cultures described in (FIG. 14D). Graph illustrates % annexin V positive cells for cells with and without Cyclin C siRNA knockdown in the presence or absence of H2O2. Error bars=s.e.m. Three independent cultures were assayed for each sample.\nas §3, §4"}, "[4]": {"tested_on": "MCF-7 breast cancer cell line", "experiment": "Cyclin C localization in stressed MCF-7 cells", "format": "cell-based, human", "conditions": "H2O2 0.4 mM for 4 h", "description": "as §2, §3, §4"}, "[5]": {"biological_target": "T1, cyclin C-Med13 interaction (Mus musculus, UniProt Q5SWW4)", "T1 construct": "endogenous in cells; host or cells: wild type (CCNC+/+) mouse embryonic fibroblasts, SV40 T antigen immortalized", "T1 sequence (Q5SWW4 whole entry)": "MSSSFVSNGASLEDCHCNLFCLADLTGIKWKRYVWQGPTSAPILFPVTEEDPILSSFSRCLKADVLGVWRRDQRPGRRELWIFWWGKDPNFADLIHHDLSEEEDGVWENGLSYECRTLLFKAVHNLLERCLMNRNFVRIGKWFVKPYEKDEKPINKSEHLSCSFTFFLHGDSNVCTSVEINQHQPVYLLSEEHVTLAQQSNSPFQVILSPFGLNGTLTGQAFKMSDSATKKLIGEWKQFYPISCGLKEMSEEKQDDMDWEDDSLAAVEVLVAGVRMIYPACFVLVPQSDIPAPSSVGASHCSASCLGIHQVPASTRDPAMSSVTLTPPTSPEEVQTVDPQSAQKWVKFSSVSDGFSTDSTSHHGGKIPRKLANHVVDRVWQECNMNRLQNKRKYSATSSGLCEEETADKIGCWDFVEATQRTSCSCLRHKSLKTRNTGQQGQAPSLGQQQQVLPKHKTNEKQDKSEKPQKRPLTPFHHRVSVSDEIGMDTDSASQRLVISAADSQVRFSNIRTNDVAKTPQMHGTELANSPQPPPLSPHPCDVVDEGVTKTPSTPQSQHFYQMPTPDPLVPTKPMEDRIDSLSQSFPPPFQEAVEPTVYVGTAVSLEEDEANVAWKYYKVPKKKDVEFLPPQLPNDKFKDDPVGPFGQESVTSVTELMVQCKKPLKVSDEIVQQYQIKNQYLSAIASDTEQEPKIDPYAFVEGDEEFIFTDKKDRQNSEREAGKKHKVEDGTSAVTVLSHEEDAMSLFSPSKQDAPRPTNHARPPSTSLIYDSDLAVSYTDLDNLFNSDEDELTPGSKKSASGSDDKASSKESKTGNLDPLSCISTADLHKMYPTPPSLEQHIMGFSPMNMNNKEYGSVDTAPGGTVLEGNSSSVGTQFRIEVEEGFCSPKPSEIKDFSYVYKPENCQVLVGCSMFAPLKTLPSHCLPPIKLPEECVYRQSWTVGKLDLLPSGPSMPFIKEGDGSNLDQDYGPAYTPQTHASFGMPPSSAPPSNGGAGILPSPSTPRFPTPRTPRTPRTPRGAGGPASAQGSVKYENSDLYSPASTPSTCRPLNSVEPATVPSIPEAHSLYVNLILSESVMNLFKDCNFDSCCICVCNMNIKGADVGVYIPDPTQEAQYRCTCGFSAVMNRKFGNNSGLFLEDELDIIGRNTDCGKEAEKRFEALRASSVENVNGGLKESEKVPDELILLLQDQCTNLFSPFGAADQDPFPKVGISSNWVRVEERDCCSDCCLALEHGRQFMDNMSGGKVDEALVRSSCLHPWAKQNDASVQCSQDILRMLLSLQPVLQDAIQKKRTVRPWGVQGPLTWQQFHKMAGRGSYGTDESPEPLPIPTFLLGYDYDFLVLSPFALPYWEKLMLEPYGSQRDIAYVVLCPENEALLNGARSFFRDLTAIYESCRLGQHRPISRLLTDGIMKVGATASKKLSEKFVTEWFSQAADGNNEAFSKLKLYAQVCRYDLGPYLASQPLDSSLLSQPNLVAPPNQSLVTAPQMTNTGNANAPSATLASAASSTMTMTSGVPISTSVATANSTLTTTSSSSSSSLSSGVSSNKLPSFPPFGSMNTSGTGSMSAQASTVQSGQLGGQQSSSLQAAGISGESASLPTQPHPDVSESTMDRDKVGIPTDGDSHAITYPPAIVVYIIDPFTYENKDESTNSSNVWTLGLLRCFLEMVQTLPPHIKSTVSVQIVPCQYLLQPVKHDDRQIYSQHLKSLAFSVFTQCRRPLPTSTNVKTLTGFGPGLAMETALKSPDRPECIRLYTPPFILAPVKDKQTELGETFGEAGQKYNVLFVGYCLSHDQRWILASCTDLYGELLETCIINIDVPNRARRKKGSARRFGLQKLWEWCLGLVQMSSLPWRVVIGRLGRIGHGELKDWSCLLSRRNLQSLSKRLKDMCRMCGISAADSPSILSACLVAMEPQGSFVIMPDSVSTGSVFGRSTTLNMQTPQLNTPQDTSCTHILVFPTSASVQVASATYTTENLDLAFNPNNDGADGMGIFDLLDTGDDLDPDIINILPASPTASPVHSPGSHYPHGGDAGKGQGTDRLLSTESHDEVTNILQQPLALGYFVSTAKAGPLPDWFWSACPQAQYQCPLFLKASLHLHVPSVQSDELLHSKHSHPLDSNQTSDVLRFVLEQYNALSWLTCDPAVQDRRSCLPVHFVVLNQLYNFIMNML", "experiment": "Cyclin C localization and mitochondrial morphology in MEF cells incubated with TAT-HAD or control peptide (indirect immunofluorescence)", "format": "cell-based", "description": "The amino terminal sequences of cyclin C from the indicated organisms. Homologies are shaded. Boxed region is targeted using the HIV TAT basic domain fused to the 19 amino acid (aa) peptide indicated by the line above the sequence. (FIG. 11B) Representative images of MEF cells incubated with TAT-HAD peptide or control (25 μM) for three hours then fixed and stained for the nucleus (DAPI), mitochondria (MitoTracker Red) and cyclin C (α-cyclin C). Arrows indicate regions of interaction between cyclin C and mitochondria.\nas §3\nCCNC^+/+ and CCNC^−/− MEF cells were treated with 0.4 mM H2O2 for 4 hrs. Mitochondrial morphology was monitored by MitoTracker Red staining. The cells were imaged with the 60× objective on the Nikon Eclipse C1Ti confocal microscope equipped with a Ds-Qi1MC CCD camera. The TAT-HAD peptide was added to log phase unstressed wild type MEF cultures for 3 h prior to image acquisition.\nA highly conserved region of cyclin C has been identified [Cooper, K. F. and R. Strich, Functional analysis of the Ume3p/Srb11p-RNA polymerase II holoenzyme interaction. Gene Expr, 1999. 8(1): p. 43-57; Cooper, K. F., S. Khakhina, S. K. Kim, and R. Strich, Stress-Induced Nuclear-to-Cytoplasmic Translocation of Cyclin C Promotes Mitochondrial Fission in Yeast, Dev Cell, 2014. 28: p. 161-173.], boxed, FIG. 11A) that is responsible for Med13 binding in yeast. […]"}, "[6]": {"tested_on": "Drp1 phosphorylation at the activating serine (Ser616)", "experiment": "Drp1 Ser616 phosphorylation in permeabilized CCNC-/- MEF cells treated with GST-cyclin C", "format": "cell-based, mouse", "source_text": "as §1"}, "[7]": {"tested_on": "permeabilized CCNC^−/−MEF cells", "experiment": "Mitochondrial fragmentation in digitonin-permeabilized CCNC-/- MEF cells after adding GST fusion proteins (live confocal microscopy)", "format": "cell-based, mouse", "description": "To examine whether cyclin C was sufficient to induce fission or if additional stress-specific signals were required, permeabilized CCNC^−/−MEF cells were used and E. coli purified human GST-cyclin C (Hs GST-cyclin C). The CCNC^−/−null cell line was employed to avoid any contribution from endogenous cyclin C. GST-cyclin C or GST (˜4 nM) was added to digitonin treated cells and mitochondrial morphology was monitored in living cells by confocal microscopy. Images were collected for 18 min at 2 min increments. […] Deconvolved images reveled little detectable changes in mitochondrial morphology in the GST treated cultures up to 18 min (9.3%). […] To determine if this function is conserved, the activity of the yeast cyclin C fused to GST (GST-cyclin C Sc) was also examined. […] To determine if the quantity of GST-cyclin C added was rate limiting, this experiment was repeated with twice the GST-cyclin C Hs concentration as before."}, "[8]": {"conditions": "permeabilized CCNC-/- MEF cells"}},
  "data": [
    {"molecule": "OO", "note": "[H2O2]", "values": [
      {"measurement": "Drp1 phosphorylation at Ser616", "setting": "[1]", "result": "no increase"},
      {"measurement": "cyclin C relocalization and mitochondrial fission", "setting": "[2]", "result": "normal cyclin C relocalization and mitochondrial fission"},
      {"measurement": "cyclin C localization", "setting": "[3]", "result": "translocated from the nucleus to the cytoplasm"},
      {"measurement": "cyclin C localization", "setting": "[4]", "result": "remained nuclear"}
    ]},
    {"molecule": "N.N.[Cl][Pt][Cl]", "note": "[cisplatin]", "values": [
      {"measurement": "cyclin C localization", "setting": "[4]", "result": "remained nuclear"}
    ]},
    {"molecule": "YGRKKRRQRRRWILDKQDLLKERQKDL (SEQ ID NO:6) (YGRKKRRQRRRWILDKQDLLKERQKDLKFL) [TAT-HAD peptide, HIV TAT basic domain fused to the cyclin C holoenzyme association domain (HAD) peptide]", "values": [
      {"measurement": "time within which the translocation/fragmentation phenotype was lost", "setting": "[5]", "result": "≤ 24", "unit": "h"},
      {"measurement": "cyclin C localization", "setting": "[5]; peptide 25 μM, three hours", "result": "nuclear to cytoplasmic cyclin C translocation"},
      {"measurement": "mitochondrial morphology", "setting": "[5]; peptide 25 μM, three hours, MitoTracker Red", "result": "abnormal fragmented morphology"}
    ]},
    {"molecule": "GST-cyclin C: E. coli purified human GST-cyclin C (protein, UniProt P24863 1-283, looked up, GST tag) Cyclin-C: MAGNFWQSSHYLQWILDKQDLLKERQKDLKFLSEEEYWKLQIFFTNVIQALGEHLKLRQQVIATATVYFKRFYARYSLKSIDPVLMAPTCVFLASKVEEFGVVSNTRLIAAATSVLKTRFSYAFPKEFPYRMNHILECEFYLLELMDCCLIVYHPYRPLLQYVQDMGQEDMLLPLAWRIVNDTYRTDLCLLYPPFMIALACLHVACVVQQKDARQWFAELSVDMEKILEIIRVILKLYEQWKNFDERKEMATILSKMPKPKPPPNSEGEQGPNGSQNSSYSQS", "values": [
      {"measurement": "Drp1 phosphorylation at Ser616", "setting": "[6]; [8]", "result": "no increase"},
      {"measurement": "quantitation of the Ser616 phosphorylation signal", "setting": "[6]; permeabilized cells", "result": "reduced"},
      {"measurement": "time to total mitochondrial fragmentation", "setting": "[7]; twice the GST-cyclin C Hs concentration", "result": "≤ 8", "unit": "min"},
      {"measurement": "time at which significant mitochondrial fragmentation began", "setting": "[7]; ~4 nM protein", "result": "≤ 10", "unit": "min"},
      {"measurement": "percentage of culture exhibiting fragmented mitochondria by 18 min", "setting": "[7]; ~4 nM protein, digitonin treated cells, 8-10% fragmented prior to treatment", "result": 94, "unit": "%"}
    ]},
    {"molecule": "GST-cyclin C Sc: yeast cyclin C fused to GST (protein, UniProt P47821 1-323, looked up, GST tag) RNA polymerase II holoenzyme …: MSGSFWTSTQRHHWQYTKASLAKERQKLWLLECQLFPQGLNIVMDSKQNGIEQSITKNIPITHRDLHYDKDYNLRIYCYFLIMKLGRRLNIRQYALATAHIYLSRFLIKASVREINLYMLVTTCVYLACKVEECPQYIRTLVSEARTLWPEFIPPDPTKVTEFEFYLLEELESYLIVHHPYQSLKQIVQVLKQPPFQITLSSDDLQNCWSLINDSYINDVHLLYPPHIIAVACLFITISIHGKPTKGSSLASAASEAIRDPKNSSSPVQIAFNRFMAESLVDLEEVMDTIQEQITLYDHWDKYHEQWIKFLLHTLYLRPASAI", "values": [
      {"measurement": "efficiency of inducing mitochondrial fission compared with human cyclin C", "setting": "[7]; [8]", "result": "as efficient inducing mitochondrial fission as the human cyclin C"}
    ]}
  ]
}
